Our source for the Kd values is article doi:10.1101/2024.07.10.602929 (2024).

Common to all, as to assay: BLI
For orientation: Biolayer interferometry detects binding as a change in optical thickness at a sensor tip.

The target in assay [1] is GABARAP (γ-aminobutyric acid type A receptor-associated protein) (human, UniProt O95166 1-117).
Assay [2] deals with LC3A (human, UniProt Q9H492 1-121).
Assay [3] concerns the target GABARAPL2 (human, UniProt P60520 1-117).
For assay [4], the target named is 1 (human, UniProt Q9H0R8 1-117).
Chain of 1 (Q9H0R8 whole entry): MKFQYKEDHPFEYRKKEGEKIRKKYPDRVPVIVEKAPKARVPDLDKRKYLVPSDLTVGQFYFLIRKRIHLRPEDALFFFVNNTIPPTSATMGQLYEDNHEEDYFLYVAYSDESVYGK
In assay [5] the target is LC3B (human, UniProt Q9GZQ8 1-120).

Where no end group is shown, it is not given here. The star is where a group is joined. Biotin = O=C1N[C@H]2[C@H](CS[C@H]2CCCCC(=O)*)N1

Chain of GABARAPL2 (P60520 whole entry): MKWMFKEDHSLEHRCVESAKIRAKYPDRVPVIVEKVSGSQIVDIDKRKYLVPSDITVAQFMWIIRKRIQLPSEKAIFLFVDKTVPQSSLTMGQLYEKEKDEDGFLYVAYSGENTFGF
Chain of GABARAP (γ-aminobutyric acid type A receptor-associated protein) (O95166 whole entry): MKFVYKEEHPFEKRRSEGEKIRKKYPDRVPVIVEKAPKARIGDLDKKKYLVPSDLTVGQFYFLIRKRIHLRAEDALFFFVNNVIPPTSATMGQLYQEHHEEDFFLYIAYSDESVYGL

In general, Kd refers to the concentration at which binding is half-saturated. High values mean lower affinity, low ones higher affinity. Take Biotin-STAENAEYLRVAPQSSEFIGA [EGFR LIR2 peptide (EGFR residues 1190–1210), N-terminally biotinylated]: the Kd in assay [1] turned out to be 304 µM; in assay [2], 648 µM; in assay [3] it was 146 µM; in assay [4], 48 µM; in assay [5], 1460 µM.

Consider Biotin-ISQKSDEEDFVKVED [PCM1 LIR peptide (pericentriolar material 1 protein residues 1954-1968), N-terminally biotinylated], for which the Kd is 3.7 µM in assay [1], 118 µM in assay [2], 15 µM in assay [3] and 369 µM in assay [5].

In the case of Biotin-ALTEDSIDDTFLPVPEYINQSVPK [EGFR LIR1 peptide (EGFR residues 1076–1099), N-terminally biotinylated], the Kd amounted to 231 µM in assay [2], 105 µM in assay [3], 21.6 µM in assay [4] and 435 µM in assay [5].
